This is an account of results in the supplement of paper PMC9170038.

The data set deals with MS2 coat protein. The data set can be described thus: apparent KD of MS2 coat protein; designed switch direction (-1 OFF switch, 1 ON switch): 1; higher = weaker reporter binding. The procedure, abridged:
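The apparent KD reported per design is the median over clusters of curve fits to normalised cluster fluorescence. The RNA switches were transcribed on Illumina chips by stalled E. coli RNA polymerase. SNAP-549-labelled MS2 coat protein was titrated from 0.7 or 1.5 nM, doubling up to 3 µM, in Tris-HCl pH 7.5 buffer containing KCl, MgCl2, BSA, DTT, tRNA and Tween-20, with no input, 200 uM small-molecule ligand, or an oligonucleotide input.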

Setting [1] is: input ligand: microRNA oligo, concentration not stated.
[2] abbreviates: Eterna round: R95, input ligand: FMN 200 uM.
The mark [3] stands for this setting: Eterna round: R95, input ligand: microRNA oligo, concentration not stated.
Where [4] appears, read: Eterna round: R95, input ligand: none.

Turning to “GGAGCCGACACUGAGGAUAUUCAUAUUAAAACAUGAGGAUCACCCAUGUAGGCCAGAAGGCCUUGGGAGAAGGCAGGCCGGCUCG [Inxebi] (Eterna round: R96, puzzle: Same State 2)”, the “apparent KD of MS2 coat protein” value reads like this: (input ligand: FMN 200 uM) 0.0219 µM; under setting [1], 0.166 µM; (input ligand: none) 0.287 µM.

As for “GGUCCAGCCUGAGCUGGACAAAAGCAUGUACAUGAGGAUCACCCAUGUUCAUGUACAAGCUUUUUGCUCGUCUUAGA [salish99_208a_r3_068] (puzzle: Sensor for hsa-mir-208a)”, the “apparent KD of MS2 coat protein” value under setting [2] stood at 0.629 µM, the “apparent KD of MS2 coat protein” value under setting [3] amounted to 0.0155 µM and the “apparent KD of MS2 coat protein” value under setting [4] came out at 0.747 µM.

On to “GUGGUCAGACAUGAGGAUCACCCAUGUGGAAUAAAUAACAGACAGGAUAUCGAAUAUAGGAUAUAUGAGAAGGGUCGAUUGGUG (Eterna round: R96, puzzle: Same State NG 3)”, for which the “apparent KD of MS2 coat protein” value was 0.0634 µM (input ligand: FMN 200 uM), 0.063 µM under setting [1] and 0.0907 µM (input ligand: none).

In the case of “AGCUAAAACGAAGGAUAUACAAACAUGAGGAUCACCCAUGUAUACAUGGUUUGUUGUGACUACAUGUAGAAGGUCGUACUAACA [SameState NG2 #17] (Eterna round: R96, puzzle: Same State NG 2)”, the “apparent KD of MS2 coat protein” value came to 0.388 µM (input ligand: FMN 200 uM), 0.307 µM under setting [1] and 0.5 µM (input ligand: none).

Take “AUAAGUUUGAUGCUCGUCUCUCCGUACUAACAUGAGGAUCACCCAUGUGGUCGGGAAGUAGCCCGGCCAGUAUGGCC [Lequteti] (puzzle: Sensor for hsa-mir-208a)”: the “apparent KD of MS2 coat protein” value is, setting by setting: under setting [2], 0.0195 µM; under setting [3], 0.0194 µM; under setting [4], 0.0193 µM.

Regarding “UAGACAAGCUUUAUGUUCUUCCUUUUCCUACAUGAGGAUCACCCAUGUAGUCUGUCGAUUGUGAGUGUAGUUGAGAU [JR_SHM208A_Sub025] (puzzle: Sensor for hsa-mir-208a)”, the “apparent KD of MS2 coat protein” value was 0.0187 µM under setting [2], 0.016 µM under setting [3] and 0.0187 µM under setting [4].

Regarding “GAGUGAUGGGUUAGUAACUGCUAGGAAGGACAUGAGGAUCACCCAUGUGAGUAACGAGCUUGUGCUCGUCUUAUAAG [JR_SHM208A_Sub021] (puzzle: Sensor for hsa-mir-208a)”, the “apparent KD of MS2 coat protein” value by setting is: under setting [2], 0.167 µM; under setting [3], 0.0894 µM; under setting [4], 0.325 µM.

Turning to “AACAAUCUAUCUGAGGAUAUCAUGAAAUAAACAUGAGGAUCACCCAUGUGCUGGAAAACUGCAUAUGAGAAGGCAGAUAGAUUGA [salish99_ss2_r3_037] (puzzle: Same State 2)”, the “apparent KD of MS2 coat protein” value is 0.0321 µM under setting [2], 0.237 µM under setting [3] and 0.395 µM under setting [4].

As to “AGCUAUCGAAAACGAUAGCAAAAGCAUGUACAUGAGGAUCACCCAUGUCAUGUACAAGCUUUUUGCUCGUCUUGAAA [Zipper 23 - 9] (puzzle: Sensor for hsa-mir-208a)”, the “apparent KD of MS2 coat protein” value came to 0.132 µM under setting [2], 0.013 µM under setting [3] and 1.39 µM under setting [4].

Regarding “CGAUGUGAGUCAGGAUAUGGGUUAUCACUCCACAUGAGGAUCACCCAUGUAAAGAGGCCAAGGAGCCAGAAGGGACAUACAUCU [Zaorso] (Eterna round: R96, puzzle: Same State NG 2)”, the “apparent KD of MS2 coat protein” value (input ligand: FMN 200 uM) came out at 1.52 µM, the “apparent KD of MS2 coat protein” value under setting [1] turned out to be 0.0142 µM and the “apparent KD of MS2 coat protein” value (input ligand: none) was 0.0508 µM.

With “UUAAGCAGCGGGCAGGAUAUGUAUUAAAAUACAUGAGGAUCACCCAUGUGCAGGUGUAACACCUGACAGAAGGGCCAAUCGGUGC [Soteed - 9] (puzzle: Same State 2)”, the “apparent KD of MS2 coat protein” value under setting [2] amounted to 0.0363 µM, the “apparent KD of MS2 coat protein” value under setting [3] is 0.197 µM and the “apparent KD of MS2 coat protein” value under setting [4] amounted to 0.329 µM.

On to “UAAUUAAGUCAAGGAUAUCACGUCGAUUAGACGUGAGAAGGUGAUUAAUACAUGAGGAUCACCCAUGUAAUACAUGAAUAAUUA [SSNG1/11-B2] (Eterna round: R96, puzzle: Same State NG 1)”, for which the “apparent KD of MS2 coat protein” value by setting is: (input ligand: FMN 200 uM) 0.0371 µM; under setting [1], 0.0614 µM; (input ligand: none) 0.0761 µM.

On to “CCAACGUACAAUUUAGAUCUACAUGAGGAUCACCCAUGUACGGAGGAUAUCAGCUCGUUUAGAGCUGAGAAGGCCGAAUUAAUU [SSNG3/2-A3] (Eterna round: R96, puzzle: Same State NG 3)”, for which the “apparent KD of MS2 coat protein” value under setting [1] stood at 0.238 µM.

For the sequence “GCCACACAUGAGGAUCACCCAUGUAAUUACAUGGGAGGAUAUCAGUGCUCGAAAGAGCACUGAGAAGGCCCGUGGC [SS1 - Omei A v4] (puzzle: Same State 1)”, the “apparent KD of MS2 coat protein” value was 0.12 µM under setting [2], 0.0401 µM under setting [3] and 0.309 µM under setting [4].

Take “AUAUAACAUGAGGAUCACCCAUGUCUCUAAAGUUGAGGAUAUGGGCAGGUUAUAUCCGAACCAGAAGGCGAAUUAU [SS1 Teenbexe 7] (puzzle: Same State 1)”: the “apparent KD of MS2 coat protein” value under setting [2] is 0.0745 µM, the “apparent KD of MS2 coat protein” value under setting [3] is 0.0463 µM and the “apparent KD of MS2 coat protein” value under setting [4] amounted to 0.102 µM.

Regarding “GCUCGGCUGAUGGCCCACAUGAGGAUCACCCAUGUGAGUGGGCAGGAUAUCUAGAUUAAGGAUGUAGAGAAGGGCCUGCCGAGC [SameState NG3 #36] (Eterna round: R96, puzzle: Same State NG 3)”, the “apparent KD of MS2 coat protein” value (input ligand: FMN 200 uM) was determined as 2.29 µM, the “apparent KD of MS2 coat protein” value under setting [1] turned out to be 0.019 µM and the “apparent KD of MS2 coat protein” value (input ligand: none) is 0.559 µM.

Take “AAACGGCCCAACGGAGGGCCACAUGAGGAUCACCCAUGUACAUAGGAUAUCACGCCAACGAGGCGUGAGAAGGGUGAUUAAAAC [Bisomaor] (Eterna round: R96, puzzle: Same State NG 3)”: the “apparent KD of MS2 coat protein” value turned out to be 0.0288 µM (input ligand: FMN 200 uM), 0.00811 µM under setting [1] and 0.0735 µM (input ligand: none).

As for “AAUAAGUUCAGCUCGUCUUGCGCCGACUGACAUGAGGAUCACCCAUGUGGAUUCCAAGGAAUCCAUUGGCGUGUUUC [Ororer] (puzzle: Sensor for hsa-mir-208a)”, the “apparent KD of MS2 coat protein” value was 0.0348 µM under setting [2], 0.0543 µM under setting [3] and 0.0248 µM under setting [4].

“AUAAGUUUGAUGCUCGUCUCUCCGUACAAACAUGAGGAUCACCCAUGUGGUCGGGAAGUAGCCCGGCCAGUAUGGCA [Arbitius] (puzzle: Sensor for hsa-mir-208a)”: the “apparent KD of MS2 coat protein” value runs as follows: under setting [2], 0.0433 µM; under setting [3], 0.018 µM; under setting [4], 0.0473 µM.

With “AUAAGUUUGAUGCUCGUCUCUUCGUACAGACAUGAGGAUCACCCAUGUAGUCGGGAAGUAGCCCGGCCAGUAUGACC [Usraisqu] (Eterna round: R96, puzzle: Sensor for hsa-mir-208a)”, the “apparent KD of MS2 coat protein” value by setting is: (input ligand: FMN 200 uM) 0.285 µM; under setting [1], 0.0382 µM; (input ligand: none) 0.248 µM.

On to “GUUAAACAUGAGGAUCACCCAUGUCAAUGUAGUCGAGGAUAUGGGCAGCUAUGAGGCGUACUAGAAGGCGAAAAGU [Mat - Same State 1 - Mod of JL - D13] (puzzle: Same State 1)”, for which the “apparent KD of MS2 coat protein” value amounted to 0.117 µM under setting [2], 0.26 µM under setting [3] and 0.535 µM under setting [4].

Turning to “AGAUAAGUCACAGGAUAUUCCUACAUUAAUAUGGAAGAAGGGUGAGCAUGAUUCGAUACAUGAGGAUCACCCAUGUAUCCGCGA [Eternabot solution 31] (Eterna round: R96, puzzle: Same State NG 1)”, the “apparent KD of MS2 coat protein” value under setting [1] was 0.054 µM.

As for “GGACGGUUAUCAGGAUAUGCGCUGAGCAUCACGGCUACAUGAGGAUCACCCAUGUCUAGCUUCUCGCAGAAGGGAUAGCCUCCU [Eternabot solution 36] (Eterna round: R96, puzzle: Same State NG 2)”, the “apparent KD of MS2 coat protein” value was 0.0112 µM (input ligand: FMN 200 uM), 0.0101 µM under setting [1] and 0.015 µM (input ligand: none).

As for “UAGAGAGGAAGCGAGGAUAUCGUGGGAGGGACAUGAGGAUCACCCAUGUAUGAUGUUGAGAGGAACGAGAAGGCGCAGGAAAGUA [JR_SS2_Sub077] (puzzle: Same State 2)”, the “apparent KD of MS2 coat protein” value under setting [2] worked out at 0.151 µM, the “apparent KD of MS2 coat protein” value under setting [3] amounted to 0.137 µM and the “apparent KD of MS2 coat protein” value under setting [4] was found to be 0.349 µM.

In the case of “GCGAAAUGAUGAAACAUGAGGAUCACCCAUGUAACGAGAGAUGAGGAUAUCGGAAAGGGAGGAGACGAGAAGGCAUGGUCACGC [AK SSNG3-V2-25.1] (Eterna round: R96, puzzle: Same State NG 3)”, the “apparent KD of MS2 coat protein” value was 0.0484 µM (input ligand: FMN 200 uM), 0.043 µM under setting [1] and 0.0587 µM (input ligand: none).

“GUGGUCAGACAUGAGGAUCACCCAUGUGGAAUAAAUAAGGAUCAGGAUAUGGAAUAUAGGAUAUACCAGAAGGGAUGGUUGGUG (Eterna round: R96, puzzle: Same State NG 3)”: the “apparent KD of MS2 coat protein” value is, setting by setting: (input ligand: FMN 200 uM) 0.0599 µM; under setting [1], 0.0417 µM; (input ligand: none) 0.0526 µM.

In the case of “AAAGAAACUACAGGAUAUGCGUGGGAAAGAUAGGCAGAAGGGUGGAUAAUAAAUUCCAGCACAUGAGGAUCACCCAUGUACUGG [Ince] (Eterna round: R96, puzzle: Same State NG 1)”, the “apparent KD of MS2 coat protein” value reads like this: (input ligand: FMN 200 uM) 0.017 µM; under setting [1], 0.0156 µM; (input ligand: none) 0.0227 µM.

Take “UAGUACAUGCUUUUUGUCUGUCUUAGAUCACAUGAGGAUCACCCAUGUUUGGUGAAAGUUAUAUAGUUUAUGACUAU [JR_SHM208A_Sub059] (puzzle: Sensor for hsa-mir-208a)”: the “apparent KD of MS2 coat protein” value under setting [2] is 0.114 µM, the “apparent KD of MS2 coat protein” value under setting [3] came to 0.0968 µM and the “apparent KD of MS2 coat protein” value under setting [4] stood at 0.162 µM.
